T1: APBA3_1, O96018
T1 sequence (O96018 389-490, limits assumed, looked up): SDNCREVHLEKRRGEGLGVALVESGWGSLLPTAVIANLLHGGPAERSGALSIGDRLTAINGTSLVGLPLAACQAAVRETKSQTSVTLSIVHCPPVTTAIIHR

T2: ARHGAP21, Q5T5U3
T2 sequence (Q5T5U3 45-169, limits assumed, looked up): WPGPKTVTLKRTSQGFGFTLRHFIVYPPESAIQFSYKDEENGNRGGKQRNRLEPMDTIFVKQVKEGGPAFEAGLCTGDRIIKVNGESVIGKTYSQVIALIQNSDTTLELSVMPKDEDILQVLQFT

T3: CARD11, Q9BXL7
T3 sequence (Q9BXL7 662-765, limits assumed, looked up): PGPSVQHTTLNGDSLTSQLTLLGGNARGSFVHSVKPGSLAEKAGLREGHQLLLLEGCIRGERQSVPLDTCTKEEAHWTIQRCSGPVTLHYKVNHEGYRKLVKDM

T4: DVL3, Q92997
T4 sequence (Q92997 244-331, limits assumed, looked up): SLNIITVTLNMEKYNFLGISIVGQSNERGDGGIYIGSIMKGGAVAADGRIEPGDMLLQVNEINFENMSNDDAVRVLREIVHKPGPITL

T5: MPDZ_10, O75970
T5 sequence (O75970 1624-1722, limits assumed, looked up): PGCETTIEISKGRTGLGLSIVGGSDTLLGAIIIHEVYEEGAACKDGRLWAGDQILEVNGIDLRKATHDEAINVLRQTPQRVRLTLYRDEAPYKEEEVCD

T6: MPP7, Q5T2T1
T6 sequence (Q5T2T1 134-230, limits assumed, looked up): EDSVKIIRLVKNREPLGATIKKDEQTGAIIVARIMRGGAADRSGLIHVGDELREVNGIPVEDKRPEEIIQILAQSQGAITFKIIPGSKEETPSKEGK

T7: NHERF3_4, Q5T2W1
T7 sequence (Q5T2W1 373-468, limits assumed, looked up): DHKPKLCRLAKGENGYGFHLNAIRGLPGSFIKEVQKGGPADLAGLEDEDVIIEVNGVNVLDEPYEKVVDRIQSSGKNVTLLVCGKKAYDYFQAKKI

T8: RADIL, Q96JH8
T8 sequence (Q96JH8 971-1071, limits assumed, looked up): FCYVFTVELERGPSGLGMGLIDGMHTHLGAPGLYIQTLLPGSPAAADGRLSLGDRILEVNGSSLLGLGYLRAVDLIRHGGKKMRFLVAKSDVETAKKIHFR

B1: IGF1R, P08069 (peptide)
chain: ALPLPQSSTC
B2: GNG4, P50150 (peptide)
chain: REKKFFCTIL
B3: ADGRA1, Q86SQ6 (peptide)
chain: TGPWKNETTV
B4: GOLT1A, Q6ZVE7 (peptide)
chain: RRLQGTSSMV

biological target: T1, APBA3_1, O96018; assay: holdup assay; design: key: below the threshold = too weak to quantify, mostly under pKd 3.1 to 4; conditions: plain residues with an end cap or a label only (N-terminal biotin on a linker: ado-ado)

Binder	pKd
B1	below the threshold
B2	below the threshold
B3	below the threshold
B4	below the threshold

biological target: T2, ARHGAP21, Q5T5U3; assay: holdup assay; design: key: below the threshold = too weak to quantify, mostly under pKd 3.1 to 4; conditions: plain residues with an end cap or a label only (N-terminal biotin on a linker: ado-ado)

Binder	pKd
B1	3.76
B2	3.93
B3	below the threshold
B4	below the threshold

biological target: ARHGEF12, Q9NZN5-2; assay: holdup assay; design: key: below the threshold = too weak to quantify, mostly under pKd 3.1 to 4; conditions: plain residues with an end cap or a label only (N-terminal biotin on a linker: ado-ado)
Sequence (Q9NZN5 other isoform, or with tags, fused parts or gaps): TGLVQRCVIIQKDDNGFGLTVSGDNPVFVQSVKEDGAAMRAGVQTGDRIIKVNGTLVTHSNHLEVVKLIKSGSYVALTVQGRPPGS

Binder	pKd
B1	4.95
B2	5.87
B3	4.05
B4	3.81

biological target: T3, CARD11, Q9BXL7; assay: holdup assay; design: key: below the threshold = too weak to quantify, mostly under pKd 3.1 to 4; conditions: plain residues with an end cap or a label only (N-terminal biotin on a linker: ado-ado)

Binder	pKd
B1	below the threshold
B2	3.54
B3	below the threshold
B4	below the threshold

biological target: DLG2_2, Q15700; assay: holdup assay; design: key: below the threshold = too weak to quantify, mostly under pKd 3.1 to 4; conditions: plain residues with an end cap or a label only (N-terminal biotin on a linker: ado-ado)
Sequence (Q15700 189-283): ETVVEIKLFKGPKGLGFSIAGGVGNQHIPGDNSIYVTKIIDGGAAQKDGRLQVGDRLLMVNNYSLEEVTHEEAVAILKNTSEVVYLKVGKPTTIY

Binder	pKd
B1	below the threshold
B2	3.97
B3	5.1
B4	4.39

biological target: DLG4_1, P78352; assay: holdup assay; design: key: below the threshold = too weak to quantify, mostly under pKd 3.1 to 4; conditions: plain residues with an end cap or a label only (N-terminal biotin on a linker: ado-ado)
Sequence (P78352 62-152): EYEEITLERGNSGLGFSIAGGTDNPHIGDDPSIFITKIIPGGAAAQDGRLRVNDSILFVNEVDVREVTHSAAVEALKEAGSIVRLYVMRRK

Binder	pKd
B1	below the threshold
B2	4.06
B3	4.99
B4	4.04

biological target: T4, DVL3, Q92997; assay: holdup assay; design: key: below the threshold = too weak to quantify, mostly under pKd 3.1 to 4; conditions: plain residues with an end cap or a label only (N-terminal biotin on a linker: ado-ado)

Binder	pKd
B1	below the threshold
B2	4.33
B3	below the threshold
B4	below the threshold

biological target: FRMPD2_3, Q68DX3; assay: holdup assay; design: key: below the threshold = too weak to quantify, mostly under pKd 3.1 to 4; conditions: plain residues with an end cap or a label only (N-terminal biotin on a linker: ado-ado)
Sequence (Q68DX3 1073-1166): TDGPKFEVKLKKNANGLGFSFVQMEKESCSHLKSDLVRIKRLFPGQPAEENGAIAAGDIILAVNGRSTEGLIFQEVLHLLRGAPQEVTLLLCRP

Binder	pKd
B1	3.54
B2	below the threshold
B3	below the threshold
B4	below the threshold

biological target: FRMPD4, Q14CM0; assay: holdup assay; design: key: below the threshold = too weak to quantify, mostly under pKd 3.1 to 4; conditions: plain residues with an end cap or a label only (N-terminal biotin on a linker: ado-ado)
Sequence (Q14CM0 67-160): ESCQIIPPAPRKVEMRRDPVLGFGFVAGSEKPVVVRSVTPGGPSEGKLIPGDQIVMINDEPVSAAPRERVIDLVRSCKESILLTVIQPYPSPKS

Binder	pKd
B1	3.54
B2	4.23
B3	below the threshold
B4	below the threshold

biological target: GORASP1, Q9BQQ3; assay: holdup assay; design: key: below the threshold = too weak to quantify, mostly under pKd 3.1 to 4; conditions: plain residues with an end cap or a label only (N-terminal biotin on a linker: ado-ado)
Sequence (Q9BQQ3 1-208): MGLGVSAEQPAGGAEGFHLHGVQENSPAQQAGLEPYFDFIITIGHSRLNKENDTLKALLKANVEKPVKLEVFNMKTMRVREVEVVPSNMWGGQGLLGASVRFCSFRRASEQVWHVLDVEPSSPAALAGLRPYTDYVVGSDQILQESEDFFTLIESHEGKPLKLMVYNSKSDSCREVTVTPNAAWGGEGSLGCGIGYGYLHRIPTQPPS

Binder	pKd
B1	below the threshold
B2	5.07
B3	below the threshold
B4	3.67

biological target: GRIP2_5, Q9C0E4; assay: holdup assay; design: key: below the threshold = too weak to quantify, mostly under pKd 3.1 to 4; conditions: plain residues with an end cap or a label only (N-terminal biotin on a linker: ado-ado)
Sequence (Q9C0E4 544-642): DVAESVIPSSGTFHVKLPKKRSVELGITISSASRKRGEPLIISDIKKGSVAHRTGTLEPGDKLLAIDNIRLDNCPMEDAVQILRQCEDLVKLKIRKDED

Binder	pKd
B1	below the threshold
B2	below the threshold
B3	below the threshold
B4	below the threshold

biological target: Inadl_10, Q8NI35; assay: holdup assay; design: key: below the threshold = too weak to quantify, mostly under pKd 3.1 to 4; conditions: plain residues with an end cap or a label only (N-terminal biotin on a linker: ado-ado)
Sequence (Q8NI35 1673-1763): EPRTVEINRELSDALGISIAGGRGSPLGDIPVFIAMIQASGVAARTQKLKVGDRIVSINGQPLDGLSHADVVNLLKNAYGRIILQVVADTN

Binder	pKd
B1	below the threshold
B2	4.26
B3	below the threshold
B4	below the threshold

biological target: Inadl_6, Q8NI35; assay: holdup assay; design: key: below the threshold = too weak to quantify, mostly under pKd 3.1 to 4; conditions: plain residues with an end cap or a label only (N-terminal biotin on a linker: ado-ado)
Sequence (Q8NI35 1058-1167): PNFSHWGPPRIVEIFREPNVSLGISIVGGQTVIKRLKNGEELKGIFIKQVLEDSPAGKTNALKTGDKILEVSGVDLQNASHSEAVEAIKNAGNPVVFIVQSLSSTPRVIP

Binder	pKd
B1	below the threshold
B2	4.22
B3	below the threshold
B4	below the threshold

biological target: Inadl_9, Q8NI35; assay: holdup assay; design: key: below the threshold = too weak to quantify, mostly under pKd 3.1 to 4; conditions: plain residues with an end cap or a label only (N-terminal biotin on a linker: ado-ado)
Sequence (Q8NI35 1530-1615): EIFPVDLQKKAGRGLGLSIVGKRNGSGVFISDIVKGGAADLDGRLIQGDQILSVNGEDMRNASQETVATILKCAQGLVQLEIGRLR

Binder	pKd
B1	below the threshold
B2	below the threshold
B3	below the threshold
B4	below the threshold

biological target: LDB3, O75112; assay: holdup assay; design: key: below the threshold = too weak to quantify, mostly under pKd 3.1 to 4; conditions: plain residues with an end cap or a label only (N-terminal biotin on a linker: ado-ado)
Sequence (O75112 1-94): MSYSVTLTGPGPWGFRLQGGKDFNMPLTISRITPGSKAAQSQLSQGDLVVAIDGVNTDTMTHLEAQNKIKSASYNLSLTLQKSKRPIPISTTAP

Binder	pKd
B1	below the threshold
B2	below the threshold
B3	below the threshold
B4	below the threshold

biological target: LNX1_1, Q8TBB1; assay: holdup assay; design: key: below the threshold = too weak to quantify, mostly under pKd 3.1 to 4; conditions: plain residues with an end cap or a label only (N-terminal biotin on a linker: ado-ado)
Sequence (Q8TBB1 261-371): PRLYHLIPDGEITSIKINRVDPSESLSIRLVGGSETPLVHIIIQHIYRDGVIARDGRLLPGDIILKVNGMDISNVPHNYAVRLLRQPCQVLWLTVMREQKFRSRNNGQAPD

Binder	pKd
B1	3.58
B2	5.09
B3	below the threshold
B4	3.83

biological target: LNX1_2, Q8TBB1; assay: holdup assay; design: key: below the threshold = too weak to quantify, mostly under pKd 3.1 to 4; conditions: plain residues with an end cap or a label only (N-terminal biotin on a linker: ado-ado)
Sequence (Q8TBB1 371-470): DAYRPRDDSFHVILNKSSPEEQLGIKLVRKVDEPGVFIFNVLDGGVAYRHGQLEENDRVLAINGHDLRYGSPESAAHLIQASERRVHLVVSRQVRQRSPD

Binder	pKd
B1	below the threshold
B2	below the threshold
B3	3.62
B4	below the threshold

biological target: MAGI1_1, Q96QZ7; assay: holdup assay; design: key: below the threshold = too weak to quantify, mostly under pKd 3.1 to 4; conditions: plain residues with an end cap or a label only (N-terminal biotin on a linker: ado-ado)
Sequence (Q96QZ7 1-106): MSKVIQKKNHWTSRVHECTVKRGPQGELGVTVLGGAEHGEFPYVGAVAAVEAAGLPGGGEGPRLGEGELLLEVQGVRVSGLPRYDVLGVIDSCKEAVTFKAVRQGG

Binder	pKd
B1	below the threshold
B2	below the threshold
B3	below the threshold
B4	below the threshold

biological target: MAGI2_2, Q86UL8; assay: holdup assay; design: key: below the threshold = too weak to quantify, mostly under pKd 3.1 to 4; conditions: plain residues with an end cap or a label only (N-terminal biotin on a linker: ado-ado)
Sequence (Q86UL8 410-522): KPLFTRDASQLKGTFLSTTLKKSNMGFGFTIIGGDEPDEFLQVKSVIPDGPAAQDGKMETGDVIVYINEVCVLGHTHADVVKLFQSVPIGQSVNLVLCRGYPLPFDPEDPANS

Binder	pKd
B1	below the threshold
B2	4.63
B3	5.17
B4	4.69

biological target: MAGI2_3, Q86UL8; assay: holdup assay; design: key: below the threshold = too weak to quantify, mostly under pKd 3.1 to 4; conditions: plain residues with an end cap or a label only (N-terminal biotin on a linker: ado-ado)
Sequence (Q86UL8 600-682): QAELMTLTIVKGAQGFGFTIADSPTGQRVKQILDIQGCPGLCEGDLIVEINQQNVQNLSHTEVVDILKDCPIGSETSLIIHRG

Binder	pKd
B1	below the threshold
B2	below the threshold
B3	3.94
B4	3.77

biological target: MAGI2_4, Q86UL8; assay: holdup assay; design: key: below the threshold = too weak to quantify, mostly under pKd 3.1 to 4; conditions: plain residues with an end cap or a label only (N-terminal biotin on a linker: ado-ado)
Sequence (Q86UL8 772-865): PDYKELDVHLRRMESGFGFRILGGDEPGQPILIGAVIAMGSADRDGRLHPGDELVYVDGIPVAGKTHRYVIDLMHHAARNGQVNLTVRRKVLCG

Binder	pKd
B1	below the threshold
B2	4.26
B3	4.74
B4	below the threshold

biological target: MAGI3_2, Q5TCQ9; assay: holdup assay; design: key: below the threshold = too weak to quantify, mostly under pKd 3.1 to 4; conditions: plain residues with an end cap or a label only (N-terminal biotin on a linker: ado-ado)
Sequence (Q5TCQ9 398-503): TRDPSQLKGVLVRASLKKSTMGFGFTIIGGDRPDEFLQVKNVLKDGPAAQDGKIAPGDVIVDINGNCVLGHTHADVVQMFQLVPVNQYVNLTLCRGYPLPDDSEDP

Binder	pKd
B1	below the threshold
B2	4.87
B3	5.29
B4	5.02

biological target: T5, MPDZ_10, O75970; assay: holdup assay; design: key: below the threshold = too weak to quantify, mostly under pKd 3.1 to 4; conditions: plain residues with an end cap or a label only (N-terminal biotin on a linker: ado-ado)

Binder	pKd
B1	3.56
B2	4.3
B3	below the threshold
B4	3.65

biological target: T6, MPP7, Q5T2T1; assay: holdup assay; design: key: below the threshold = too weak to quantify, mostly under pKd 3.1 to 4; conditions: plain residues with an end cap or a label only (N-terminal biotin on a linker: ado-ado)

Binder	pKd
B1	below the threshold
B2	3.49
B3	below the threshold
B4	below the threshold

biological target: T7, NHERF3_4, Q5T2W1; assay: holdup assay; design: key: below the threshold = too weak to quantify, mostly under pKd 3.1 to 4; conditions: plain residues with an end cap or a label only (N-terminal biotin on a linker: ado-ado)

Binder	pKd
B1	below the threshold
B2	5.36
B3	below the threshold
B4	below the threshold

biological target: NOS1, P29475; assay: holdup assay; design: key: below the threshold = too weak to quantify, mostly under pKd 3.1 to 4; conditions: plain residues with an end cap or a label only (N-terminal biotin on a linker: ado-ado)
Sequence (P29475 9-101): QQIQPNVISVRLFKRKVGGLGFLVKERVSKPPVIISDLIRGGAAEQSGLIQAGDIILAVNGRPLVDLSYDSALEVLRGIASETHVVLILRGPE

Binder	pKd
B1	below the threshold
B2	3.81
B3	below the threshold
B4	3.77

biological target: PDZRN4_1, Q6ZMN7; assay: holdup assay; design: key: below the threshold = too weak to quantify, mostly under pKd 3.1 to 4; conditions: plain residues with an end cap or a label only (N-terminal biotin on a linker: ado-ado)
Sequence (Q6ZMN7 213-318): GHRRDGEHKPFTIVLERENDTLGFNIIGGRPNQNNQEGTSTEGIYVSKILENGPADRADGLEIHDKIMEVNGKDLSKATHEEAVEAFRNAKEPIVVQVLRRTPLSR

Binder	pKd
B1	below the threshold
B2	4.19
B3	4.31
B4	below the threshold

biological target: PTPN3, P26045; assay: holdup assay; design: key: below the threshold = too weak to quantify, mostly under pKd 3.1 to 4; conditions: plain residues with an end cap or a label only (N-terminal biotin on a linker: ado-ado)
Sequence (P26045 505-587): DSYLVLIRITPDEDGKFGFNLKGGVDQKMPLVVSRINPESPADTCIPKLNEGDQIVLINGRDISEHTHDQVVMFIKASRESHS

Binder	pKd
B1	below the threshold
B2	4.47
B3	4.76
B4	3.99

biological target: T8, RADIL, Q96JH8; assay: holdup assay; design: key: below the threshold = too weak to quantify, mostly under pKd 3.1 to 4; conditions: plain residues with an end cap or a label only (N-terminal biotin on a linker: ado-ado)

Binder	pKd
B1	below the threshold
B2	5.25
B3	4.04
B4	4.28

biological target: SCRIB_3, Q14160; assay: holdup assay; design: key: below the threshold = too weak to quantify, mostly under pKd 3.1 to 4; conditions: plain residues with an end cap or a label only (N-terminal biotin on a linker: ado-ado)
Sequence (Q14160 999-1103): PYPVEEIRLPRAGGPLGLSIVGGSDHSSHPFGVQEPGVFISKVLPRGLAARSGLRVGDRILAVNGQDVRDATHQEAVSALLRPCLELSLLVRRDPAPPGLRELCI

Binder	pKd
B1	below the threshold
B2	4.91
B3	4.69
B4	below the threshold

Source: PMC9482650, “Quantitative fragmentomics allow affinity mapping of interactomes” (Nature Communications, 2022)
